This passage reports Kd results from patent US10196445.

Common to all, as to assay: Fc receptor binding, method not stated
One assay deals with CD64 (FcγRIa) (human) (UniProt P12314).
The target of assay [1] is CD32-R131 (FcγRIIa) (human) (UniProt P12318).
Assay [2] has as its target CD32-H131 (FcγRIIa) (human) (UniProt P12318).
For assay [3], the target named is CD16-V158 (FcγRIIIa) (human) (UniProt P08637).
Another assay has as its target CD32B (FcγRIIb) (human) (UniProt P31994).

Chain of CD32-R131 (FcγRIIa) (human) (P12318 34-217 H167R limits assumed): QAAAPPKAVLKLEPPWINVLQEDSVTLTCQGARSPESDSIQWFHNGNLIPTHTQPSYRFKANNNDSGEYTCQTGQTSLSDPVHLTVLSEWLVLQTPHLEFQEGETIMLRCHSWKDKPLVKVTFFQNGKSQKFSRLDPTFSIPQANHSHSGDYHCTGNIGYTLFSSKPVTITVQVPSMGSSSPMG
Chain of CD64 (FcγRIa) (human) (P12314 16-288 limits assumed): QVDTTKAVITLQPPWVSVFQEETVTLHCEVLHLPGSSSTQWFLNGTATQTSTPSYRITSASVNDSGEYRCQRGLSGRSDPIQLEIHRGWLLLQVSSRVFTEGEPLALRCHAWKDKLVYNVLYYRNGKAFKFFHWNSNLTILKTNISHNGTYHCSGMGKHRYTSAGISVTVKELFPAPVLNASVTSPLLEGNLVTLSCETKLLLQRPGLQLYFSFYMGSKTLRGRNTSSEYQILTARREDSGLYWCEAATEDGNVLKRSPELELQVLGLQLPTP
Chain of CD16-V158 (FcγRIIIa) (human) (P08637 17-208 F176V limits assumed): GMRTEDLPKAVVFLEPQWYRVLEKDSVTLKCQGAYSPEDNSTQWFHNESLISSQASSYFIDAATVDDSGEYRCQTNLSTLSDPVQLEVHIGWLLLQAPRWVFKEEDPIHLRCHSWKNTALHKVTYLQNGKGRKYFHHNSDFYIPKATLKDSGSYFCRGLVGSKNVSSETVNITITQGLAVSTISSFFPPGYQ
Chain of CD32-H131 (FcγRIIa) (human) (P12318 34-217 limits assumed): as the sequence (P12318 34-217 H167R limits assumed) above, with R134H counted along it
Chain of CD32B (FcγRIIb) (human) (P31994 43-217 limits assumed): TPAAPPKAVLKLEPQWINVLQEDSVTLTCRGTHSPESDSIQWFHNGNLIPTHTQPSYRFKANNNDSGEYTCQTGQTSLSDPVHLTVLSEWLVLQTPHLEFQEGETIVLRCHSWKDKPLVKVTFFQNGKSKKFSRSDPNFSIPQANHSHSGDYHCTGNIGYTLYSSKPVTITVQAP

Usually Kd stands for a measure of binding affinity in units of concentration. Low readings indicate tighter binding, high ones weaker binding. “non-fucosylated IgG1f antibody (human IgG1, 214R/356E/358M allotype)”: the Kd with CD64 (FcγRIa) (human) amounted to 0.0001 µM; in assay [1], 0.71 µM; in assay [2], 0.56 µM; in assay [3], 0.011 µM.
In the case of “IgG1f antibody (human IgG1, 214R/356E/358M allotype)”, the Kd is 0.0002 µM with CD64 (FcγRIa) (human), 0.96 µM in assay [1], 0.53 µM in assay [2] and 0.097 µM in assay [3].
“GASDALIE modified IgG1f antibody (human IgG1, 214R/356E/358M allotype; G236A, S239D, A330L and I332E)”: the values for the Kd (with CD64 (FcγRIa) (human); with CD32B (FcγRIIb) (human); in assay [1]) were 0.0006 µM, 0.89 µM and 0.1 µM, respectively.
